Measurements taken from patent publication US5837813.
pKd: −log10 of the molar value. Where “and” joins values, the source holds several entries; their conditions need not be identical. Identical values can stand only once.

Experiments:
[1] = biological target: human fibronectin (human) (UniProt P02751); assay: Scatchard analysis (LIGAND) of 125I-fibronectin binding to coated fibronectin competed by unlabeled fibronectin
[2] = biological target: human fibronectin (human) (UniProt P02751); assay: Scatchard analysis (LIGAND) of 125I-fibronectin binding to coated fibronectin competed by unlabeled fibronectin; low affinity site
[3] = biological target: human fibronectin (human) (UniProt P02751); assay: Scatchard analysis (LIGAND), fibronectin on coated fibronectin

pKd [1]: 8.10
pKd [2]: 6.10
binding sites per 1000 fibronectin dimers, high affinity site (sites per 1000 fibronectin dimers) [3]: 1 and 2
binding sites per fibronectin dimer, low affinity site (sites per fibronectin dimer) [3]: 1 and 2
Substance: human fibronectin (from UniProt P02751)
